These results are taken from article PMC10877974.

In test [1] the target is Ad35K++ (recombinant adenovirus serotype 35 fiber knob protein with affinity-enhancing mutations) (adenovirus serotype 35). Briefly: SEC; Superdex 200 Increase 10/300 GL, 1x Tris-buffered saline, 1 mL/min; cGMP grade Ad35K++. Background: In gel filtration, larger molecules generally elute earlier.
For test [2] the target is unchanged. The experiment in a line: SDS-PAGE of unboiled sample; reduced 4-15% gradient gel, Laemmli sample buffer with beta-mercaptoethanol, sample not boiled, Coomassie Blue.

As usually defined, the stoichiometry N is the number of molecules, sites or subunits per partner or assembly. As to “Ad35K++ (recombinant adenovirus serotype 35 fiber knob protein with affinity-enhancing mutations) (domain or fragment)”, the stoichiometry N in test [1] and in test [2] was 3 throughout.
